Test: yeast display, Sf9 membrane polyspecificity reagent, FACS + sequencing; frameworks hold sequencing errors
How it was run: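 Synthetic nanobody libraries on Saccharomyces cerevisiae BJ5465 were galactose-induced for 36–48 hours, stained 1 hour at 4 °C with 10% biotinylated, detergent-solubilized Sf9 membrane reagent and enriched on streptavidin microbeads. FACS then separated cells into low and high (top ~1%) gates by anti-HA (expression) and streptavidin (reagent binding) fluorescence. Genes were colony-PCR amplified, MiSeq 2 × 250 sequenced and CDR-length filtered. A clone's polyreactivity label is that of its gate of origin.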

Sequence | polyreactivity (PSR sort gate)
QVQLVESGGGLVQAGGSLRLSWAASGNIFLYYAMGWYRQAPGKERELVPDIDSSGASTYYADSVKGRFTISRDNAKNTVYLQMNSLKPEDTAVYYCAAEFHWWYAGDDYGYWGQGTQVTVSS | low polyreactivity
QVQLVESGGGLVQAGGSLRLSWAASGSFFKRNAMGSYRQAPGKEREFVAAITYNGGSTYYADSVKGRFTISRDNAMTTVYLQMNSLKPEDTAVYDCNNLYSRAQFRGGDYWAQGTQVTVSS | high polyreactivity
QVQLVESGGGLVQAGGSLRLSWAASGSIFQDYAMGWYRQAPGKERDLVAAISSSGTSTYYADSVKGRCTISRDNAKNTVSLQMNSLQPEDTAVFYCAAPPGRVARYDYWGQGTQVTVSS | low polyreactivity
QVQLVESGGGLVQAGGSLRLSWAASGSIFSIYAMGWYRQAPGKERDLVASITRSSGRTYYAYSVKGRFTISRDNAKNNVYLQMNSLKPEDTAVYYCAKDYIPLALDADDYCGQGTQVTVSS | low polyreactivity
QVQLVESGGGLVQAGGSLRLSWAASGSIFYWNAMGWYRQAPGKERELVATITITTSTNYADSVKGRFTISRDNAKNTVYLQMNSLKPEDTAVYYCNAGAPYRYLDEYNYWGQGTQVTVSS | low polyreactivity
QVQLVESGGGLVQAGGSLRLSWAASGSILLGYAMGWYRQAPGKERELVAAISRNGGSTYYADSVKGRFTISRDNAKNTVYLQMNSLKPEDTAVYYCNKYSGYKGTDGGDYWGQGTQVTVSS | low polyreactivity
QVQLVESGGGLVQAGGSLRLSWAASGYTFGKNAMGWYRQAPGKERELVAAISRSGGSTFYADSVKGRFTISRDNAKNTVYLQMNSLKPEDTAVYYCAAESYGYSAPYDYWGQGTQVTVSS | high polyreactivity
QVQLVESGGGLVQAGGSLRLSYAASGSIFGRYVMGWYRQAPGKERELVAAIKRSGGRTYYADSVKGRFTISRDNAKNTVYLQMNSLKPEDTAVYYCATYTGYSASKEVPYDYWGQGTQVTVSS | high polyreactivity
QVQLVESGGGLVQAGGSLRLTCAASAFIFHFNAMGWYRQAPGKERELVAAISRTGGTTYYADSVKGRFTISRDNAKNTVYLQMNSLKPEDTAVYYCAAYSKYGQHYDYWGQGTQVTVSS | high polyreactivity
QVQLVESGGGLVQAGGSLRLTCAASGFIFDTYAMGWYRQAPGKERELVAAISWTGTDTYYADSVKGRFTISRDNAKNTVYLQMNSLKPEDTAVYYCAARSRYKYSPSGDYWGQGTQVTVSS | high polyreactivity
QVQLVESGGGLVQAGGSLRLTCAASGFIFPNNAMGWYRQAPGKESELVAAISYSGGSTNYADSVKARFTISRDNAKNTVYLQMNSLKPEDTAVYYCAKADPAYLWGLREYDYWGQGTQVTVSS | low polyreactivity
QVQLVESGGGLVQAGGSLRLTCAASGFIFYYYTIGWYRQAPGKERELVAAIRTDGNTYYADSVKGRFTISRDNAKNTVYFQMNSLKPEDTAVYYCAAKIPRPYAMDYWGQGTQVTVSS | low polyreactivity
QVQLVESGGGLVQAGGSLRLTCAASGFIYADNAMGWDRQAPGQERELVAAISGSGGGTYYADSVKGRFTISRDNAKNTVYLQMNSLKPEDTAVYYCAKSQYHRFDYWGQGTQVTVSS | low polyreactivity
QVQLVESGGGLVQAGGSLRLTCAASGFTFHNYAMGWYRQAPGKERELVAVIRWRGGSTYYADSVKGRFTISRDNAKNTVYLQMNSLKPEDTAVYYCAKRARGSYYWGYNYWGQGTQVTVSS | high polyreactivity
QVQLVESGGGLVQAGGSLRLTCAASGFTFHSYAMGWYRQSPGTERELVAAISARGGSTYYADSVKGRLTISRDNAKNTVYLQMNSLKPEDTAFYYCAAYSYQVRFYYWGQGTQVTVSS | high polyreactivity
QVQLVESGGGLVQAGGSLRLTCAASGFTFRRYAMGCYRKAPGKERLLVAAISYSGGITYYADSVKGRFTISRDNAKNTVYLHMNSLKAEDTAVYYCAADYFAPYKTYDYWGQGTQVTVSS | high polyreactivity
QVQLVESGGGLVQAGGSLRLTCAASGGILYYNAMGWYRQAPGKEREVVAAISRSGITYYADSVKGRFTISRDNAKNTVYLQMNSLKPEDTAVYYSNTVPWRRWGYDYWGQGTQVTVSS | high polyreactivity
QVQLVESGGGLVQAGGSLRLTCAASGGTFQYYSMGWYRQAPGKERELVAAITTSGGSTYYADSVKGRFTISRDNAKNTDYLQMNSLKPEDTAVYYCAAGRGYRGYVRYYYWGQGTQVTVSS | high polyreactivity
QVQLVESGGGLVQAGGSLRLTCAASGGTFRLYAMGWYRQAPGKERELVAAISSTGSTYYAASVKGRFTISRDNAKNTVYLQMNSLKPEDTAVYYCNAKLPVTSLKFDYYYWGQGTQVTVSS | high polyreactivity
QVQLVESGGGLVQAGGSLRLTCAASGIIFKLYAMGWYRQAPGKEREFVATITKTGGRTYYADSVKGRFTISRDNAKNTVYLQMNSLKPEDTAVDYCAARRVNGKMYYWGQGTQVTVSS | high polyreactivity
QVQLVESGGGLVQAGGSLRLTCAASGITFFQYAMGWYRQAPGKERELVAAITWSGGDTYYADSVKGRFTISRDNAKITVYLQMNSLKPEDTAVYYCAAEYVVQYYVYGYTLGYDYWGQGTQVTVSS | high polyreactivity
QVQLVESGGGLVQAGGSLRLTCAASGITFTSYVMGWYRQAPGKERELVAAIRWSGGRTYYADSVKGRFTISRDNAKNSVYLQMNSLKPEDTAVYYCNRVTRSHVDYWGQGTQVTVSS | high polyreactivity

Sequence | polyreactivity (PSR sort gate)
QVQLVESGGGLVQAGGSLRLTCAASGITFYSYAMGWYRQAPGKERELVAAITRSGGSTYYADSVKGRFTISRDNAKNTVYLQMNSLKPEDTAVYYCAADEGRVFSGGYDYWGQGTQVTVSS | high polyreactivity
QVQLVESGGGLVQAGGSLRLTCAASGLIFFTPYALGWYRQAPGTESELVAVITWRGASTYYADSVKGRFTISRDNAKHTVYFQMNSLKPEDTAVYYCAAKLCSVWKESYDSWGQGTQVTVSS | low polyreactivity
QVQLVESGGGLVQAGGSLRLTCAASGLILDGYAMGWYRQAPGKERELVAAITRSGGRTYYADSVKGRFTISRDNAKNTVYLQMNSLKPEDTAVDYCAADTYRYHLIATDDYWGQGTQVTVSS | high polyreactivity
QVQLVESGGGLVQAGGSLRLTCAASGLISTPNALGWYRQAPGKEREFVASISSRGGSTYYADSVKGRFTISRDNAMNTVYLQMNSLKPEDTAVYYCAADAYREFYYEYYYWGQGTQVTVSS | low polyreactivity
QVQLVESGGGLVQAGGSLRLTCAASGLTFPKYAMGWYRQAPGKERELVAAITQRGGSTYYADSVKGRFTISRDNAKNTVYLQMNSLKPEDTAVYYCNARRRDYNNRREFDYWGQGTQVTVSS | high polyreactivity
QVQLVESGGGLVQAGGSLRLTCAASGLTFRSYTMRWYRQAPGTERELVAAITFRGGSTYYADSLKGRFTISRDNAKNTVYLQMNSLKPEDTAVYYSAAVAIRRSVPVPRFDYWGQGTQVTVSS | high polyreactivity
QVQLVESGGGLVQAGGSLRLTCAASGLTFTTYALGWYRQAPGKERELVAAISRRGSRTYYADSVKGRFTISRDNAKNTVYLQMNSLKPEDTAVYYCNALTGSFKTYSFDYWGQGTQVTVSS | high polyreactivity
QVQLVESGGGLVQAGGSLRLTCAASGNIFISYAMGWYRQAPGKEMELVAAISRSGGSTYYADSVKGRFTISRDNEKNSVYLLMNSLKPEDTAVYYCAAYIGQGRYGSWGQGTQVNVSS | high polyreactivity
QVQLVESGGGLVQAGGSLRLTCAASGNTFNNNAMGWYRQAPGKERELVAAISGSGGSTYYADSVKGRFTISRDNAKNTVYLQMNSLKPEDTAVYYCAVRLVHGGKRYGYWGQGTQVTVSS | high polyreactivity
QVQLVESGGGLVQAGGSLRLTCAASGRIFKRYVMGWYRQAPGKERELVAAISVRGASTYYADSVKGRFTISRDHAKNTVYLQMNSLKPEDTAVYYCATAGYRLLDYWGQGTQVTVSS | high polyreactivity
QVQLVESGGGLVQAGGSLRLTCAASGRIFNYYAMGWYRQAPGKERELVAVITYSAGRTYYADSVKGRFTLSRDNAKNTVYLEMNSLKPEDTAVYYCNADGWVSVSKHYYYWGQGTQVTVSS | low polyreactivity
QVQLVESGGGLVQAGGSLRLTCAASGRIFTGYAMGWYRQAPWKERELVAAISRGSSTYADSVKGRFTISRDNAKNTVYLQRNSLKPEDTAVYYCAAKWRAADWWPRTSQYDYWGQGTQVTVSS | high polyreactivity
QVQLVESGGGLVQAGGSLRLTCAASGRIFYQYALGWYRQAPGKERELVSSITTSGGNTYYADSVKVRFTISRDNAKNTVYLQMNSLKPEDTAVYYCASRFNWRQWLYEYWGQGTQVSVSS | low polyreactivity
QVQLVESGGGLVQAGGSLRLTCAASGRNFPAYVMGWYRQAPGKERELVAGITSASSTYYADSVKGRFTISRDNAKNTVYLQMNSLKPEDTAVYYCAAVGYSVRQRYDYWGQGSQVTVSS | high polyreactivity
QVQLVESGGGLVQAGGSLRLTCAASGRTFHAYVMGWYRQAPGKERELVADISSGGDTYADSVKGRFTISRDNAKNTVYLQMNSLKPEDTAVYYCAVDVIQDESGYWGQGTQVTVSS | low polyreactivity
QVQLVESGGGLVQAGGSLRLTCAASGRTFRKNAMGWYRQAPGKERELVAAITGSSGTTYYADSVKGRFTISRDNAKNTVYLQMNSLKPEDTAVYYCATTVGDPGRRYYYWGQGTQVTVSS | high polyreactivity
QVQLVESGGGLVQAGGSLRLTCAASGRTFRQYAMGWYRQAPGKERELVAAIRTNGGRTYYADSVKGRFTISRDYAKNTVYLQFNSLKPEDTAVYYCAVYAVVQGVLFDYWGQGTQVTVSS | high polyreactivity
QVQLVESGGGLVQAGGSLRLTCAASGRTFRRNAMGWYRPAPAKERELVAAITSGGGTYYADSVKGRFTISRDNAKNTVYLQMNSLKPEDTAVYYCNKKTSAGRVDYWGQGTQVTVSS | high polyreactivity
QVQLVESGGGLVQAGGSLRLTCAASGRTFYIYTMGWYRQAPGKERELVAAISSSGDSTYYADSVKGRFTISRDNAKYTVYLQMISLKPEDTAVYYCAAEYAYHHVGFGYWGQGTQVTVSS | low polyreactivity
QVQLVESGGGLVQAGGSLRLTCAASGRTFYYYAMGWYRKAPGKERELVAAIDSDGSTTYADSVKGRFTISRDNAKNTVYLQINSLKPEDTAVYYCAAAFPTYRHYYWGQGTQVTVSS | low polyreactivity
QVQLVESGGGLVQAGGSLRLTCAASGRTLAWYTMGWYRQAPGKERELVAAISGSGGSTYYADSVKGRFTISRDNAKNTVYFQINRLKPEDTAVYYCSLRVDSYYGHTRYYYWGQGTQVTLSS | high polyreactivity

From the nanobody polyreactivity screen of Harvey et al. (2022)
